B1: 5KPH (parent)
chain: EEKRQVKQVAKEKLLEQSPNSKVQVRRVQKQGNTIRVELELRTNGKKENYTVEVERQGNTWTVKRITRT

Variants of: B1
Experiment: folding stability dG (cDNA display proteolysis); higher = more stable
Conditions: PBS, room temperature

Folding stability dG [kcal/mol] of substitutions, site by site:
R26: K 4, M 4.11, S 3.35, G 3.32, F 3.7, D 2.16, L 4.62, I 4.25, Q 3.49, Y 3.53, V 4.16, H 3.56, N 3.51, C 3.65, W 3.49, A 3.09, P 1.51, E 2.58, T 3.92
S18: K 3.83, Y 4.74, R 3.82, M 4.05, Q 3.82, F 4.68, H 4.66, I 3.93, C 3.86, L 4.03, D 3.23, P 1.99, V 3.94, G 2.56, A 3.8, W 4.39, N 4.47, E 3.57, T 3.35
L15: T 2.92, A 2.99, N 2.5, C 3.13, H 2.98, D 2.07, E 3.1, Y 3.14, P 1.87, R 3.33, I 3.02, K 3.36, Q 3.42, F 3.03, G 2.53, M 3.7, V 3.01, S 2.83, W 2.92
Q29: I 4.24, C 3.9, A 3.84, D 3.75, P 1.02, L 4.26, K 3.75, Y 4.51, N 3.83, G 3.42, H 4.18, T 4.33, E 3.96, W 4.58, S 4.22, R 4.17, F 4.45, V 4.08, M 4.3
L14: W 2.29, Y 1.95
V23: A 3.6, E 1.2, M 3.08, D 1.23, K 1.37, H 1.57, L 3.07, T 2.51, N 1.26, G 1.59, C 3.17, P 2.68, Q 1.79, S 2.02, I 3.9, W 2.67, Y 1.94, R 1.43, F 2.6
K22: L 3.99, H 3.91, Q 4.05, C 3.65, E 4.13, W 4.06, P 2.37, M 3.85, G 3.2, D 3.8, V 4.01, T 4.16, N 3.62, R 3.85, Y 4.05, F 4.16, S 3.83, I 4.01, A 3.71
P19: H 2.92, A 2.83, C 3.04, L 2.64, F 2.54, R 2.76, I 2.83, Q 2.85, S 2.77, G 2.7, Y 2.13, T 2.69, E 2.5, M 2.71, V 2.82, W 2.15, D 2.31, N 2.57, K 3.03
Q17: S 3.59, N 3.69, G 3.64, Y 4, H 4.04, F 4.12, P 1.82, R 3.92, I 4.39, V 3.91, M 4.52, L 4.54, C 3.75, T 3.83, E 3.31, A 3.68, D 3.46, K 3.77, W 3.6
Q24: S 4.13, E 3.67, T 4.24, N 3.77, P 1.25, Y 4.48, G 3.09, A 3.97, F 4.47, I 4.3, M 4.43, R 4.41, K 4.33, V 4.25, H 4.28, C 3.83, W 4.4, L 4.38, D 3.53
V28: M 4.12, Y 4.35, H 2.16, K 1.74, W 3.85, F 3.91, T 3.24, R 1.56, P 1.34, S 2.5, D 1.44, Q 2.53, G 1.87, L 4.03, A 3.15, I 3.99, C 3.4, N 1.55, E 1.75
V25: E 1.74, P 2.2, K 1.3, I 3.76, R 1.71, Q 1.67, D 1.17, M 2.63, L 2.91, N 1.72, W 2.7, A 2.95, T 2.85, Y 2.81, S 1.84, F 3.77, G 1.64, C 3.09, H 2.19
E16: K 3.24, M 3.38, L 3.47, R 3.08, S 3.55, D 3.16, W 2.86, Q 3.77, C 3.27, N 3.21, G 3.25, A 3.8, P 2.15, V 2.86, F 2.82, T 3.34, Y 2.61, I 3.04, H 3.17
Q31: C 3.92, Y 4.34, W 4.41, K 3.83, P 1.87, N 3.84, E 4.05, M 4.47, S 4.03, R 4.05, H 4.3, A 3.75, G 3.13, F 4.21, D 3.89, I 4.42, T 4.12, V 4.25, L 4.27
N20: S 3.81, Y 3.32, H 3.64, M 3.58, D 3.66, K 3.55, R 3.5, L 3.6, V 2.78, E 3.53, I 3.03, C 3.53, A 3.77, T 3.6, W 2.38, F 3.35, Q 3.62, P 2.3, G 4.21
R27: Q 3.3, S 3.79, E 2.76, W 4.14, G 3.64, M 3.43, P 1.38, C 3.45, A 3.61, Y 3.72, F 3.84, I 3.22, N 3.56, H 3.71, T 3.37, V 3.12, L 3.53, K 3.62, D 3.1
K30: Q 4.25, Y 4.7, P 3.79, I 4.35, F 4.62, T 4.14, S 4.32, W 4.64, H 4.05, A 4.22, E 3.78, V 4.33, C 3.69, L 4.03, M 4.28, D 3.8, N 3.76, G 4.08, R 4
G32: E 3.1, I 2.67, L 3.09, H 3.14, F 3.33, D 3.3, A 3.18, C 3.07, K 3.11
S21: Y 2.67, M 2.75, W 2.89, C 3.12, N 2.38, P 2.37, V 3.17, Q 2.31, D 2.23, T 2.81, H 2.6, A 3.98, G 4.01, E 1.96, F 2.65, L 2.57, R 2.18, K 2.16, I 2.46
